Data reported in paper PMC11908141 (bioRxiv, 2025).

Target: the molecule itself
Experiment: cryo-EM structure

B1: enolase, native, Francisella novicida (enzyme)
chain: MSSQIKQVFARQILDSRGNPTVEVDVVLESGAFGRAAVPSGASTGIREALELRDGNKALFLGKSVYKAVENVNTKIAQAVKGLDALDQRLIDKTMIELDGSENKKNLGANAILGVSLATARAAASHLRKPFYRYLMDVKEYLMPVPMMNVINGGSHADNNVDMQEFMIVPAGFDTFSEALRCGTEVFHTLKKVLIADGYSVAGVGDEGGYAPDLPSNEAAIEAILKAVKEAGYEPGKHVFIALDPASSEFYKDGKYELKSENKSLTSEEMIDYYAAWVEKYPIVSIEDGLAEEDWAGWKLLTEKLGNKVQLVGDDLFVTNPSILAKGIEKGIANSILIKLNQIGTLTETFEAMAMAGQAGYTCVVSHRSGETSDTIIADLAVATCSGQIKTGSLSRSDRIAKYNQLLRIEEELGENAIYPGIKAFVFNSDEEVEEDVQEIIVEDSEAEKVVVQVEE
  stoichiometry N: 2
